According to PMC9431274, “Stenotrophomonas maltophilia from Nepal Producing Two Novel Antibiotic Inactivating Enzymes, a Class A β-Lactamase KBL-1 and an Aminoglycoside 6′-N-Acetyltransferase AAC(6′)-Iap” (Microbiology Spectrum, 2022):

Tests used:
KBL-1 = target: T1, KBL-1 (Stenotrophomonas maltophilia, UniProt A0A7I8E9L1); assay: penicillin G hydrolysis, UV spectrophotometry; format: biochemical
T1 construct: gene blaKBL-1; full length 286 residues; expressed without signal peptide in E. coli BL21-CodonPlus (pET28a); His-tag removed by TEV

[1] = tested on: CC(C)(O/N=C(\C(=O)N[C@@H]1C(=O)N2C(C(=O)[O-])=C(C[n+]3ccccc3)CS[C@H]12)c1csc(N)n1)C(=O)O; assay: initial rate of hydrolysis, UV spectrophotometry, Lineweaver-Burk; format: biochemical, Stenotrophomonas maltophilia; conditions: 37°C, 50 mM Tris-HCl pH 7.4, 0.3 M NaCl
Source text: (§1) initial rate of hydrolysis, UV spectrophotometry, Lineweaver-Burk on KBL-1

[2] = tested on: CC1(C)S[C@@H]2[C@H](NC(=O)Cc3ccccc3)C(=O)N2[C@H]1C(=O)O; assay: as above; format: biochemical, Stenotrophomonas maltophilia; conditions: 37°C, 50 mM Tris-HCl pH 7.4, 0.3 M NaCl
Source text: as §1

[3] = tested on: CC1(C)S[C@@H]2[C@H](NC(=O)[C@H](N)c3ccc(O)cc3)C(=O)N2[C@H]1C(=O)O; assay: as above; format: biochemical, Stenotrophomonas maltophilia; conditions: 37°C, 50 mM Tris-HCl pH 7.4, 0.3 M NaCl
Source text: as §1

[4] = tested on: CC1(C)S[C@@H]2[C@H](NC(=O)[C@H](N)c3ccccc3)C(=O)N2[C@H]1C(=O)O; assay: as above; format: biochemical, Stenotrophomonas maltophilia; conditions: 37°C, 50 mM Tris-HCl pH 7.4, 0.3 M NaCl
Source text: as §1

[5] = tested on: CC1=C(C(=O)O)N2C(=O)[C@@H](NC(=O)[C@H](N)C3=CCC=CC3)[C@H]2SC1; assay: as above; format: biochemical, Stenotrophomonas maltophilia; conditions: 37°C, 50 mM Tris-HCl pH 7.4, 0.3 M NaCl
Source text: as §1

[6] = tested on: CCN1CCN(C(=O)N[C@@H](C(=O)N[C@@H]2C(=O)N3[C@@H]2SC(C)(C)[C@@H]3C(=O)O)c2ccccc2)C(=O)C1=O; assay: as above; format: biochemical, Stenotrophomonas maltophilia; conditions: 37°C, 50 mM Tris-HCl pH 7.4, 0.3 M NaCl
Source text: as §1

[7] = tested on: CO/N=C(\C(=O)N[C@@H]1C(=O)N2C(C(=O)O)=C(COC(C)=O)CS[C@H]12)c1csc(N)n1; assay: as above; format: biochemical, Stenotrophomonas maltophilia; conditions: 37°C, 50 mM Tris-HCl pH 7.4, 0.3 M NaCl
Source text: as §1

[8] = tested on: CO/N=C(\C(=O)N[C@@H]1C(=O)N2C(C(=O)[O-])=C(C[N+]3(C)CCCC3)CS[C@H]12)c1csc(N)n1; assay: as above; format: biochemical, Stenotrophomonas maltophilia; conditions: 37°C, 50 mM Tris-HCl pH 7.4, 0.3 M NaCl
Source text: as §1

[9] = tested on: CO[C@@]1(NC(=O)C(C(=O)O)c2ccc(O)cc2)C(=O)N2C(C(=O)O)=C(CSc3nnnn3C)CO[C@@H]21; assay: as above; format: biochemical, Stenotrophomonas maltophilia; conditions: 37°C, 50 mM Tris-HCl pH 7.4, 0.3 M NaCl
Source text: as §1

[10] = tested on: CO[C@@]1(NC(=O)Cc2cccs2)C(=O)N2C(C(=O)O)=C(COC(N)=O)CS[C@@H]21; assay: as above; format: biochemical, Stenotrophomonas maltophilia; conditions: 37°C, 50 mM Tris-HCl pH 7.4, 0.3 M NaCl
Source text: as §1

[11] = tested on: C[C@@H](O)[C@H]1C(=O)N2C(C(=O)O)=C(SCCN=CN)C[C@H]12; assay: as above; format: biochemical, Stenotrophomonas maltophilia; conditions: 37°C, 50 mM Tris-HCl pH 7.4, 0.3 M NaCl
Source text: as §1

[12] = tested on: C[C@@H](O)[C@H]1C(=O)N2C(C(=O)O)=C(S[C@@H]3CN[C@H](C(=O)N(C)C)C3)[C@H](C)[C@H]12; assay: as above; format: biochemical, Stenotrophomonas maltophilia; conditions: 37°C, 50 mM Tris-HCl pH 7.4, 0.3 M NaCl
Source text: as §1

T1 sequence (A0A7I8E9L1 entry or part of it): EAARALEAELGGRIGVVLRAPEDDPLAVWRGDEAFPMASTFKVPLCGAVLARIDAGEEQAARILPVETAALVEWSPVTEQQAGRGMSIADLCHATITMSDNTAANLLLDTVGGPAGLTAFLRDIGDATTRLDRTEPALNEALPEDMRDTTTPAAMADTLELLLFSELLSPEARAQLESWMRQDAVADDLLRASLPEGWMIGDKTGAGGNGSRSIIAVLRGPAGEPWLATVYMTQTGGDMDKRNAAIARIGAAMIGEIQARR

Molecule: O=C(O)[C@H]1/C(=C/CO)O[C@@H]2CC(=O)N21 [clavulanic acid]
- IC50 (KBL-1): 0.21 µM

Molecule: CC1(C)[C@H](C(=O)O)N2C(=O)C[C@H]2S1(=O)=O [sulbactam]
- IC50 (KBL-1): 1.2 µM

Molecule: KBL-1 (Stenotrophomonas maltophilia)
- Km [1]: 45 ± 12 µM
- kcat [1]: 0.013 ± 0.003 s⁻¹
- kcat/Km [1]: 300 M⁻¹ s⁻¹
- Km [2]: 21 ± 5 µM
- kcat [2]: 24 ± 2 s⁻¹
- kcat/Km [2]: 1.17e+06 M⁻¹ s⁻¹
- Km [3]: 23 ± 4 µM
- kcat [3]: 10 ± 0.4 s⁻¹
- kcat/Km [3]: 455000 M⁻¹ s⁻¹
- Km [4]: 37 ± 8 µM
- kcat [4]: 19 ± 1 s⁻¹
- kcat/Km [4]: 532000 M⁻¹ s⁻¹
- Km [5]: 605 ± 45 µM
- kcat [5]: 2.23 ± 0.13 s⁻¹
- kcat/Km [5]: 4000 M⁻¹ s⁻¹
- Km [6]: 52 ± 7 µM
- kcat [6]: 22 ± 1 s⁻¹
- kcat/Km [6]: 422000 M⁻¹ s⁻¹
- Km [7]: 31 ± 5 µM
- kcat [7]: 1.33 ± 0.053 s⁻¹
- kcat/Km [7]: 44000 M⁻¹ s⁻¹
- Km [8]: 79 ± 2 µM
- kcat [8]: 0.751 ± 0.029 s⁻¹
- kcat/Km [8]: 10000 M⁻¹ s⁻¹
- Km [9]: 49 ± 4 µM
- kcat [9]: 0.392 ± 0.009 s⁻¹
- kcat/Km [9]: 8000 M⁻¹ s⁻¹
- Km [10]: 57 ± 6 µM
- kcat [10]: 0.032 ± 0.002 s⁻¹
- kcat/Km [10]: 1000 M⁻¹ s⁻¹
- Km [11]: 85 ± 7 µM
- kcat [11]: 1.13 ± 0.143 s⁻¹
- kcat/Km [11]: 13000 M⁻¹ s⁻¹
- Km [12]: 39 ± 6 µM
- kcat [12]: 0.443 ± 0.056 s⁻¹
- kcat/Km [12]: 11000 M⁻¹ s⁻¹
